B3: Sulfolobus solfataricus HerA (enzyme, UniProt Q97WG8 1-500, looked up)
chain: MIIGYVIGQATTQEALILAERPVRLGTYVVLEYDNVKALGLITNVTRGSPMLDDNMNDIEIVQRLKQFNNSIPVYTKAKVKMLCDMNNHFLMPDIPPFAGTPAREAEDEELKSIYSQDGQIRIGSLIGKNVEVKLNINSFARHLAILAATGSGKSNTVAVLSQRISELGGSVLIFDYHGEYYDSDIKNLNRIEPKLNPLYMTPREFSTLLEIRENAIIQYRILRRAFIKVTNGIREKLKEGQIPFSTLNSQFYELMKDELETQGNSDKKSSAKDEVLNKFEEFMDRYSNVIDLTSSDIIEKVKRGKVNVVSLTQLDEDSMDAVVSHYLRRILDSRKDFKRSKNSGLKFPIIAVIEEAHVFLSKNENTLTKYWASRIAREGRKFGVGLTIVSQRPKGLDENILSQMTNKIILKIIEPTDKKYILESSDNLSEDLAEQLSSLDVGEAIIIGKIVKLPAVVKIDMFEGKLLGSDPDMIGEWKKVEESEKIAKGFADFGTEIGD
notes: HerA ATPase, ORF SSO2251, Sulfolobus solfataricus strain P2; whole ORF amplified from genomic DNA with primers from the start codon to the stop codon, cloned BamHI/EcoRI into pet29a; 56 kDa as monomer; Hexamer in solution by gel filtration; Cloned at BamHI/EcoRI of pet29a, downstream of the vector's N-terminal S-tag; also called SSO2251; source: E. coli BL21-CodonPlus(DE3)-RIL, purified (heat …)

Key:
HerA = target: T1, HerA (Sulfolobus solfataricus P2, UniProt Q97WG8 1-500); experiment: EMSA; 5 mM MgCl2, 2 mM EDTA; preferred substrate; EMSA: 20 mM HEPES/NaOH pH 7.5, 3.5 mM beta-mercaptoethanol, 50 mM NaCl, 5 mM MgCl2, 2 mM EDTA, 2 pmol DNA in 10 ul, 10 min at room temperature (NurA+HerA: 20 min at 70 C, then DNA 30 min at room temperature); 5% PAGE, 0.5x TBE; details: protein: recombinant, cloned BamHI/EcoRI in pET29a, so a vector-derived N-terminal extension is possible, chain copies: 6
T1 sequence: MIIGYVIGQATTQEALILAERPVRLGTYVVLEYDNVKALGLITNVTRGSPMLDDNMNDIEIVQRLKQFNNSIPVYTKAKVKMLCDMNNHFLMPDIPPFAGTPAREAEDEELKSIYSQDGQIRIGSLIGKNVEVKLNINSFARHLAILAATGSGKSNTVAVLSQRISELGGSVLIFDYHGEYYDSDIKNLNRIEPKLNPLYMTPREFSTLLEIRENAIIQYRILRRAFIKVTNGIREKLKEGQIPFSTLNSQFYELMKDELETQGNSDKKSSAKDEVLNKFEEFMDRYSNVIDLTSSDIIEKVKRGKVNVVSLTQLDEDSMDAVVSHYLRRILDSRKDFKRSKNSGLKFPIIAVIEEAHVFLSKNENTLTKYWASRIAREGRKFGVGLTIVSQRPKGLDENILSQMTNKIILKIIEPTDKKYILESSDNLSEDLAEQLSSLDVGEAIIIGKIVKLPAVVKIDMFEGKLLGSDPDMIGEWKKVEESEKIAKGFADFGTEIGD

[1] = target: B3; experiment: SEC; Superdex 200 10/300 GL gel filtration; 800 μg HerA and 200 μg NurA, separately or mixed, incubated at 60°C for 20 min before gel filtration; fractions analysed by SDS-PAGE; details: both partners purified
[2] = target: the molecule itself; experiment: as above

B1: ODN2 (single-stranded) (ssDNA)
DNA: GACGTGGGCAAAGGTTCGTCAATGGACTGACAGCTGCATGG
binding result (HerA; label: 5' Cy5, single strand): binds

B2: Sulfolobus solfataricus NurA (enzyme, UniProt Q97WH1 1-339, looked up)
chain: MIRKIYDKLVESHNEIKNQIYNIANYLKQEIQDKVNEYWNEYVINHEQSETCKFVAIDGGSFGRPMRIGIVYAVGAESVIGDNKGVKTLSEDGQIGIFKPGNDAQERISLLMEALELSLALRDGSKGDYILMDGSLSKKIGNKVDIQQFSDEELKLIRNVDLNGIISIKDERKMRDLLMLLNQFLVSKIIEEYDGNVLWISKVSRGRDLFGTDYPDITVLELFTEKRGFSKLIIKNIDIEKISEIPEIEVLRKMEYTTFYTRLDNGKRVIRVDIVGRVDEKIVKEIMDRLSGVSIKGYPFPLLKAHMDVRFSAMDREKIIKLVGSKLHKDIEWWPSQFY
notes: NurA nuclease, ORF SSO2248, Sulfolobus solfataricus strain P2; whole ORF amplified from genomic DNA with primers from the start codon to the stop codon, cloned NdeI/BamHI into pet29a; 39 kDa as monomer; Dimer in solution by gel filtration; Cloned at NdeI with its own stop codon, so probably untagged (surmise); also called SSO2248; NurAwt; source: E. coli BL21-CodonPlus(DE3)-RIL, purified (heat …)
binding result [1]: binds | stoichiometry N [2]: 2

B3
stoichiometry N [2]: 6

B4: 70mer EMI fork (70leadCy5/70 lag emi) (mixed)
DNA 1: CGTGACTTGATGTTAACCCTAACCCTAAGAATTCGGCTTAAGTGAGTGTGAGGATATCATGTACGATAGC
DNA 2: CACACTCACTTAAGCCGAATTCTTAGGGTTAGGGTTAACATCAAGTCACG
binding result (HerA; label: 5' Cy5 on strand 1, 3' overhang 20 nt on strand 1): binds

B5: 70mer bubble (70leadCy5/70 lag bubble) (mixed)
DNA 1: CGTGACTTGATGTTAACCCTAACCCTAAGAATTCGGCTTAAGTGAGTGTGAGGATATCATGTACGATAGC
DNA 2: GCTATCGTACATGATATCCTCACACTTTTTTTTTTTTTTTTTTTTGGGTTAGGGTTAACATCAAGTCACG
binding result (HerA; label: 5' Cy5 on strand 1, blunt ends, internal T-tract bubble): binds
